From the DeepSol protein solubility set

test: soluble on expression in E. coli; label from the status in PepcDB or PDB records

Row | Sequence | soluble on expression in E. coli
1 | MEEVIWEQYTVTLQKDSKRGFGIAVSGGRDNPHFENGETSIVISDVLPGGPADGLLQENDRVVMVNGTPMEDVLHSFAVQQLRKSGKIAAIVVKRPRKVQVAPLQGSPPLSHDDRGFEVIEEFDGRSFRSGYSERSRHSSHDMLSHSWEGNRERGRPHQRTQSRERERSRGRSLERGLDQEDYGRSRERSRGRSLERGLDRDFVSRDHSRGRSIDRDYDRDYERSYHEAYEPDYGGGYSPSYDRRAHPETRYERSRSREHLRSRSPSPESRSRHEHKGQHDPDRPIGVLLTKSKANEEYGLRLGSQIFIKEMTRTGLATKDGNLHEGDIILKINGTVTENMSLTDARKLIEKSRGKLQLVVLRDSKQTLINIPALNDSDSEVEDISEIESNRSFSPEERRQQYSDQDYHSSTEKLKERPSSREETSGRLSRMGATPTPFKSTGDITAAGVTEASREPRYQEEGPVPQPRTAPRVFLRPSPEDEAIYGPNTKMVRFKKGDSVGLRLAGGNDVGIFVAGIQEGTSAEQEGLQEGDQILKVNTQGFRGLVREDAVLYLLEIPKGETVTILAQSRADVYRDILACGRGDSFFIRSHFECEKETPQSLAFTRGEVFRVVDTLYDGKLGHWLAVRIGNELEKGLIPNKSRAEQMASVQNAQRENAGDRADFWRMRGQRSSGGVKKNLRKSREDLAAAVSVSTKFPAYEKVLLREAGFKRPVVLFGPIADIAMERSTELPDLFQTAKTEPKDAGSEKSSGVVRLNTVRQIIEQDKHALLDVTPKAVDLLNYTQWFPIVIFFNPDSRQGVKTIRQRLSPTSNKSSRKLFDQANKLKKTCSHLFTATINVNSANDGWFGSLKDSIQQQQNEAVWVSEGKMEGMDDDAEDRMSYLTAMGADYLSCDSRLISDFEDTDGEGGAYTDNELEEPAEEPLVSSITRSSEPVQHEENIRKSSPEPRAQMRRAASRDQLRELARPQPSSQSRPKARSQNREDSFDYSKSNLPATAGSEIPGGSTKGYPPPIAAKPAFGRPILKPSTPVPMPESEEVGESTEEQEDAPRSVLGRVKIFEKMDHKAKLQRMQELQEAQNARIEIAQKHPDIYAVPIKAPKPDAGLPPHMSSGPPEPQKAPSRLYQDTRGSYGSDPEEEEYRQQLAAHSKRGYYSQPSRYRDTEL | soluble
2 | MEEVMALSEPEQNTWINRPEYSEVSEDRIVIVSDANTDFWENTYYDFSHYTGHVYGKETESDFTFQVRVKADFSALYDQAGIFIGGTETAWIKAGIEFNDGQPSIGCVVTNNNSDWSTGLFPGNPGDFWMRVTSKSDVIRIQYSIDGKNWPLLRLCTWPGTRKRFIGVMCCSPKRKGLSAEFTEILLTTPLDSDLHDLSLEHHHHHH | soluble
3 | MEFIMKTRMFEEEGWIRKKCKVCGKPFWTLDPDRETCGDPPCDEYQFIGKPGIPRKYTLDEMREKFLRFFEKHEIYPHGRVKRYPVLPRWRDDVLLVGASIMDFQPWVISGEADPPANPLVISQPSIRFTDIDNVGITGRHFTIFEMMAHHAFNYPGKPIYWMDETVELAFEFFTKELKMKPEDITFKENPWAGGGNAGPAFEVLYRGLEVATLVFMQYKKAPENAPQDQVVVIKGEKYIPMETKVVDTGYGLERLVWMSQGTPTAYDAVLGYVVEPLKKMAGIEKIDEKILMENSRLAGMFDIEDLGDLRYLREQVAKRVGITVEELEKAIRPYELIYAIADHTKALTFMLADGVVPSNVKAGYLARLLIRKSIRHLRELGLEVPLSEIVALHIKELHKTFPEFKEMEDIILEMIELEEKKYAETLRRGSDLVRREIAKLKKKGIKEIPVEKLVTFYESHGLTPEIVKEIAEKEGVKVNIPDNFYSMVAKEAERTKEEKGEELVDFELLKDLPDTRRLYYEDPFMKEFDAKVLRVIKDWVILDATAFYPEGGGQPYDTGVLIVNGREVKVTNVQKVGKVIIHKVEDPGAFKEGMIVHGKIDWKRRIQHMRHHTGTHVLMGALVRVLGRHVWQAGSQLTTDWARLDISHYKRISEEELKEIEMLANRIVMEDRKVTWEWLPRTTAEQKYGFRLYQGGVVPGREIRVVKIEDWDVQACGGTHLPSTGLVGPIKILRTERIQDGVERIIFACGE | soluble
4 | MEFKVGDTVVYPHHGAAVIEAIEHREMGGETLEYLVLQINQSDLVVRVPSKNAELVGVRDVVDDDGLQKVFGFLRETDVEEAGNWSRRFKANQERLASGDVNKVAEVVRDLWRRDQGKGLSAGEKRMLAKARQVLVGELALAENKDEKQTEEILAQVDATIERHRAENKGIEETKVEPLGDIDLDDLNFDDED | not soluble
5 | MEFMMEIQGNRKELMVSKIKNGTVIDHIPAGRAFAVLNVLGIKGHEGFRIALVINVDSKKMGKKDIVKIEDKEISDTEANLITLIAPTATINIVREYEVVKKTKLEVPKVVKGILKCPNPYCITSNDVEAIPTFKTLTEKPLKMRCEYCETIIDENEIMSQILGANNK | soluble
6 | MEFMRVLLIAGGVSPEHEVSLLSAEGVLRHIPFPTDLAVIAQDGRWLLGEKALTALEAKAAPEGEHPFPPPLSWERYDVVFPLLHGRFGEDGTVQGFLELLGKPYVGAGVAASALCMDKDLSKRVLAQAGVPVVPWVAVRKGEPPVVPFDPPFFVKPANTGSSVGISRVERFQDLEAALALAFRYDEKAVVEKALSPVRELEVGVLGNVFGEASPVGEVRYEAPFYDYETKYTPGRAELLIPAPLDPGTQETVQELALKAYKVLGVRGMARVDFFLAEGELYLNELNTIPGFTPTSMYPRLFEAGGVAYPELLRRLVELALT | soluble
7 | MEFRKSPSPDGDRIELVAIYDHDERIDMNDLHRSLTGFRILTLRISATYDQDIERIAFLPTIDKLTFCKDLLNAYNFQRIIMQSYEGIKAIGSRRTRIKLNDLLAANISFPIFMNVILPDAQLNLFIKYLIAGSNHRLDGFLFAKTPNAADFNEAAIFKGVNYQPVGGREAYPEFRNIQFQLHPRTRVFYVTNNNGILATVYLDIGLRYRIDIFPAGLMSSFPLLRLPSNELTKVLRHMNPIAQLGFSLLSEKSKNRISLLRIFSDEVSISVCAYKRKEKLTLRLRNSLSSLEVHKCGPDLVIVLQNWSDCTKLDFRREMSLRHWIDHCMELATAKRIDELTLSSIKKKHKFGISLLSERLKNLICSLQVFTTDVEIILRRSIELKIVPLFLVIGQTGQIEISSFTHFFLDNFIWIRPQMSTRNWIDHCLELTNNHRLNKLIVEAGDNQEIDMDGFYRSLIGLHIKTLELKGTYSRSIQLFGSLSNVDTIVLDVELVQTTDYQRMVVLNHTKLVETRTNRVKFSLNDLLASNASFLQFTNLRIPDTQLNLFLKHWIAGSNQRQEGFSLTKEHDEQSYNQSVILKGIETRPAVRRSEHHKFDEIFTLPQYSRTLDITNCDGVEATVYFGKSWLFNLGPVTNLCCMLVWG | not soluble
8 | MEFTDPYTVDSLQCFNGFHYRGYRINQSDTDKVNRLIAIIRQEREKNIGPAAGDIIEYTCRNGDWFQSAHIEEICDGHFKICLSGSIPFCYESGDGVGYNVHEGIWTYPKRAALKPAGIREKQFRTWGHAGKCANGEVYFMACVRAWQYTEPEPLYGRYTTRNWSKYHINRQPDPEHDGEFFYMTEGFTLYSREELDRLTGILHGKLFDGIYSNSLVLWGYHMKWEILTEQEWNETKAEIHISFLGKSPVKIITCDDTHTITVYKKK | not soluble
9 | MEGFVLAGTSSGVGKTVATLATLTALEDAGYQPQPAKAGPDFIDPSHHEALVDTPSRTLDPWLAGEDGMRRTYWRGTGDICVVEGVMGLYDGTKTSTAAVAEGLDLPVVLVVDAKAGMESVAATALGFAQYADRIGVDIEVAGILAQRAHGGRHADGIRDALPEDLTYFGRIPPMSDLEIPDRHLGLHMGSEAGLDRDALSTAAETIDIERLVETARAPPEVATTERNTGDSPADRRVAVAQDSAFCFIYPSVLERLRSEASVEPFSPVAGDSVPDADAIYLPGGYPELHGESLETGGTLDEIAVRAADGVPVYGECGGLMALSESLTTTDGDTYEMAGVLPADIEMQDRYQALDHVELEARADTVAATSGAHRRGHEFHYSAATLGSDASFAFDMVRGDGIDGEHDGLTEYSTIGTYCHCHGESGAFDRLLAVPSKDILEHHHHHH | not soluble
10 | MEGLEAYDYHLPPEQIAQEGVEPRDMARLMVVYREGPFRVAHKRVRDLPEFLRPGDVLVFNESKVIPARLLARKPTGGKVEILLVRERSPGLWEALLGPARKAPPGTRLLLLSPKDLAPVPGLQAEVVAVEEDGVRLLRFQGDLVAHLEEVGEVPLPPYIKAKIPMERYQTVYARRPGSVAAPTAGLHFTPELLERLREMGVELRFLTLHVGPGTFRPVKGDPEKHEMHAEPYAIPEEVAEAVNRAKAEGRRVVAVGTTVVRALESAYREGVGVVAGEGETRLFIRPPYTFKVVDALFTNFHLPRSTLLMLVAAFLGRERTLEAYRLAVAEGYRFYSLGDAMLIL | soluble
11 | MEGLFESLPEGYREKLGRPGEYPFTRGIYPRMYLERLWTMRQYAGFSTAEESNARYRYLLSQGQTGLSVAFDLPTQLGLDPDHPMSVGEVGRVGVSIATLEDMQKLFDGIPLDQVSTSMTINAPAMMLLALYLLVAEAQGVPWDKVSGTVQNDILKEYFARGTYIYPPGPSMRLVTDIFEFCAAHVPRWNTISISGYHIREAGSTAAQEIAFTLADAKAYVRAALERGLDVDRFAPRLSFFFAAHGDIFEEAAKFRAARRLWARIMREEFGAKDPKSWMLRFHTQTGGSTLTAQEPLNNVVRTAYQALAAVLGGTQSLHTNAYDEALGLPTEKSALLALRTQQILAYESGVTRAIDPLGGSFYVEHLTDKLEREAEQILREIDALGGAVAAVEAGYFQRALEESAWQFQKEVEEGKRVIVGVNRFFDPNSPLNEPVPVQRIDPELHERRKRELAAFKANRDGESVRVGLERLREAARGEENLFPYVLEAFRRRATLGEVCGVLREEWGEYQPPR | soluble
12 | MEGMDHGSHSMPMGASSDAPAQSRTPIPPVTDADRAAVYTSHSGHQVHDSAINSYFVADKLEWQDANDGSALAWDLSGWIGGDIDRLLLRSEGERTNGKTEEAEVQALWGHAVSSSWDVVAGARQDFKPGAPQTWAAFGLQGQAISDLDVEATAFIGDAGQTAARLEADYDLLLTNDLILQPTGELNFYGKNDPQRGNGSGLSTSEFGLRLRYEITPQFAPYVGVTWNRSYGKTADYAREDDEDVAQARLVVGLRLWFLEHHHHHH | not soluble
13 | MEGWQRAFVLHSRPWSETSLMLDVFTEESGRVRLVAKGARSKRSTLKGALQPFTPLLLRFGGRGEVKTLRSAEAVSLALPLSGITLYSGLYINELLSRVLEYETRFSELFFDYLHCIQSLAGVTGTPEPALRRFELALLGHLGYGVNFTHCAGSGEPVDDTMTYRYREEKGFIASVVIDNKTFTGRQLKALNAREFPDADTLRAAKRFTRMALKPYLGGKPLKSRELFRQFMPKRTVKTHYE | soluble
14 | MEHFHGNRWDQLRAVEADILCPPPADPFQIFPSGWTRASELSEKGWRELLDRRRSQSPPPREPSPDVRRAIRRTPPPRVNRVAPIRLPERRPLRQLNANDARRPAQDAANRINQENMRAGNIDNGQPRRRALSPTQLPGVRAIPKDFNRFFRGLLTPGEFFAKSQTRYLGPFDEMPTEDTLPAADEYIILQRMGRLPDSGKSIFRQVGNLST | not soluble
15 | MEHFLQYVWQHRLYSSLSYGADAFFLEPEVIDPGMLNRDSGPDFFNAKVKVGDLLWAGNVEIHCRASDWVRHGHHLDPAYDNVVLHVVETDDLPIRHRISGEPVPVCVMHVDERLRANADFMLRTSLLPGCKDRLHELDSLEVHDWLDTLVVERLERKAAEVDRLYLSTSMDWNATAYILLARHFGFGLNNDALERLARSLPFAAIAKHRSNLLQVEALLLGQAGLLADLEDEYAEKLASEYAFLRHKFDLQPLDPSLFRLHRARPASFVHRRLGQLAAILHRCEFLFSSFVETVSAKELAQKLSVEASSYWASHYRFGKPTPVPSRSTLAAISSDALLINVAAPLRYAWLRGQSMEDYRERTIDFLRGIKPENNKPVRAFSQICRPADAAESQALIQLYREYCERRKCFFCRWGYRLLSCCKG | not soluble
